Results on four molecules are retold here after patent US20260374869 (published 2026).

Usually Kd stands for the equilibrium constant for the complex coming apart.

The experiment has as its target T1, human CD2 (human, UniProt P06729).
T1 chain: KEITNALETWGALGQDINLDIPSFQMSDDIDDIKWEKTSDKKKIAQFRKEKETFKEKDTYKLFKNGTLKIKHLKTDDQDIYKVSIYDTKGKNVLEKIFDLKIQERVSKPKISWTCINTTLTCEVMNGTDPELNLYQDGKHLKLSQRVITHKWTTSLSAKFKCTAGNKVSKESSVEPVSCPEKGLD
Put plainly: SPR. Background: In SPR one partner is held on a chip, and binding of the other changes the refractive index at the surface.

B1: DARPin #1 (designed binder)
chain: DLGVKLLHAAQTGQDDEVRILLAAGADVNAKDWLGVTPLHYAAWIGHLEIVEVLLKAGADVNAKDWQGQTPLHLAAQWGHLEIVEVLLKAGADVNAQDNHGNTPADLAAEVGHEDIAEVLQKAA
As to B1, the Kd is 3.28 nM.

B2: DARPin #2 (designed binder)
chain: DLGKKLLQAARAGQLDEVRELLKAGADVNAKDQHGFTPLHVAAKEGHLEIVEVLLKAGADVNAKDSFGETPLHLAAEHGHLEIVEVLLKAGADVNAKDQSGWTPLHLAAWAGHLEIVEVLLKAGADVNAQDKSGKTPADLAARAGHQDIAEVLQKAA
B2: binding was put at a Kd of 382 nM.

B3: DARPin #3 (designed binder)
chain: DLGKKLLQAARAGQLDEVRELLKAGADVNAKDQQGVTPLHIAAYGHLEIVEVLLKAGADVNAKDLQGETPLHVAAWAGHLEIVEVLLKAGADVNAKDKHGITPLHLAAKKGHLEIVEVLLKAGAEVNAQDKSGKTPADLAARAGHQDIAEVLQKAA
The molecule B3 displayed a dissociation constant Kd of 48 nM.

B4: DARPin #15 (designed binder)
chain: DLGDKLLEAAQYGQDDEVRILLAAGADVNAKDNSGSTPLHLAAQHGHLEIVEVLLKAGADVNAKDWWGWTPLHEAATTGHLEIVEVLLKAGADVNAQDKSGKTPADLAAHAGHEDIAEVLQKAA
As to B4, binding was characterised by a dissociation constant (Kd) of 15.9 nM.
